Laboratory results published in the Human Domainome abundance scans (Beltran et al. 2025).
± gives the uncertainty stated by the source.

B1: 1-phosphatidylinositol 4,5-bisphosphate phosphodiesterase gamma-2, residues 772 to 827; numbered along this chain, P16885 (parent)
chain: RTVKALYDYKAKRSDELSFCRGALIHNVSKEPGGWWKGDYGTRIQQYFPSNYVEDI

Variants of: B1
Assay: abundance fitness (aPCA) (normalised: wild type 0, dead -1); higher = more abundant; growth selection in yeast, the domain comes from the species named
Details: Homo sapiens
With RTVKALYDYKEKRSDELSFCRGALIHNVSKEPGGWWKGDYGTRIQQYFPSNYVEDI the abundance fitness was -0.775 ± 0.25. RTVKALYDYKPKRSDELSFCRGALIHNVSKEPGGWWKGDYGTRIQQYFPSNYVEDI gave an abundance fitness of -0.446 ± 0.27. In the case of RTVKALYDYKSKRSDELSFCRGALIHNVSKEPGGWWKGDYGTRIQQYFPSNYVEDI, the abundance fitness is reported as -0.39 ± 0.11. With RTVKALYDYKRKRSDELSFCRGALIHNVSKEPGGWWKGDYGTRIQQYFPSNYVEDI the abundance fitness was -0.683 ± 0.083. In the case of RTVKALYDYKCKRSDELSFCRGALIHNVSKEPGGWWKGDYGTRIQQYFPSNYVEDI, the abundance fitness is reported as -0.819 ± 0.11. Variant RTVKALYDYKWKRSDELSFCRGALIHNVSKEPGGWWKGDYGTRIQQYFPSNYVEDI has an abundance fitness of -0.989 ± 0.21. Work on RTVKALYDYKNKRSDELSFCRGALIHNVSKEPGGWWKGDYGTRIQQYFPSNYVEDI yielded an abundance fitness of -0.378 ± 0.17. Variant RTVKALYDYKTKRSDELSFCRGALIHNVSKEPGGWWKGDYGTRIQQYFPSNYVEDI has an abundance fitness of -0.461 ± 0.092. With RTVKALYDYKQKRSDELSFCRGALIHNVSKEPGGWWKGDYGTRIQQYFPSNYVEDI the abundance fitness was -0.176 ± 0.19. For RTVKALYDYKLKRSDELSFCRGALIHNVSKEPGGWWKGDYGTRIQQYFPSNYVEDI, the abundance fitness was -1.05 ± 0.14. For RTVKALYDYKVKRSDELSFCRGALIHNVSKEPGGWWKGDYGTRIQQYFPSNYVEDI, the abundance fitness was -0.972 ± 0.065. For RTVKALYDYLAKRSDELSFCRGALIHNVSKEPGGWWKGDYGTRIQQYFPSNYVEDI, the abundance fitness was -0.399 ± 0.062. For RTVKALYDYGAKRSDELSFCRGALIHNVSKEPGGWWKGDYGTRIQQYFPSNYVEDI, the abundance fitness was -0.373 ± 0.054. In the case of RTVKALYDYPAKRSDELSFCRGALIHNVSKEPGGWWKGDYGTRIQQYFPSNYVEDI, the abundance fitness is reported as -0.502 ± 0.12. RTVKALYDYNAKRSDELSFCRGALIHNVSKEPGGWWKGDYGTRIQQYFPSNYVEDI showed an abundance fitness of -0.042 ± 0.33. In the case of RTVKALYDYSAKRSDELSFCRGALIHNVSKEPGGWWKGDYGTRIQQYFPSNYVEDI, the abundance fitness is reported as -0.008 ± 0.084. RTVKALYDYMAKRSDELSFCRGALIHNVSKEPGGWWKGDYGTRIQQYFPSNYVEDI showed an abundance fitness of -0.356 ± 0.12. RTVKALYDYYAKRSDELSFCRGALIHNVSKEPGGWWKGDYGTRIQQYFPSNYVEDI gave an abundance fitness of -0.106 ± 0.27. RTVKALYDYTAKRSDELSFCRGALIHNVSKEPGGWWKGDYGTRIQQYFPSNYVEDI showed an abundance fitness of -0.025 ± 0.097. RTVKALYDYAAKRSDELSFCRGALIHNVSKEPGGWWKGDYGTRIQQYFPSNYVEDI gave an abundance fitness of -0.319 ± 0.12. Work on RTVKALYDYCAKRSDELSFCRGALIHNVSKEPGGWWKGDYGTRIQQYFPSNYVEDI yielded an abundance fitness of -0.034 ± 0.055. RTVKALYDYDAKRSDELSFCRGALIHNVSKEPGGWWKGDYGTRIQQYFPSNYVEDI gave an abundance fitness of 0.052 ± 0.1. In the case of RTVKALYDYIAKRSDELSFCRGALIHNVSKEPGGWWKGDYGTRIQQYFPSNYVEDI, the abundance fitness is reported as -0.336 ± 0.32. Work on RTVKALYDYWAKRSDELSFCRGALIHNVSKEPGGWWKGDYGTRIQQYFPSNYVEDI yielded an abundance fitness of -0.319 ± 0.054. RTVKALYDYQAKRSDELSFCRGALIHNVSKEPGGWWKGDYGTRIQQYFPSNYVEDI showed an abundance fitness of -0.002 ± 0.096. Work on RTVKALYDYFAKRSDELSFCRGALIHNVSKEPGGWWKGDYGTRIQQYFPSNYVEDI yielded an abundance fitness of -0.333 ± 0.25. Work on RTVKALYDYRAKRSDELSFCRGALIHNVSKEPGGWWKGDYGTRIQQYFPSNYVEDI yielded an abundance fitness of -0.033 ± 0.079. Work on RTVKALYDYVAKRSDELSFCRGALIHNVSKEPGGWWKGDYGTRIQQYFPSNYVEDI yielded an abundance fitness of 0.103 ± 0.082. In the case of RTVKALYDYEAKRSDELSFCRGALIHNVSKEPGGWWKGDYGTRIQQYFPSNYVEDI, the abundance fitness is reported as -0.104 ± 0.11. RTVKALVDYKAKRSDELSFCRGALIHNVSKEPGGWWKGDYGTRIQQYFPSNYVEDI showed an abundance fitness of -0.2 ± 0.065. RTVKALRDYKAKRSDELSFCRGALIHNVSKEPGGWWKGDYGTRIQQYFPSNYVEDI gave an abundance fitness of 0.169 ± 0.073. In the case of RTVKALNDYKAKRSDELSFCRGALIHNVSKEPGGWWKGDYGTRIQQYFPSNYVEDI, the abundance fitness is reported as -0.375 ± 0.29. Work on RTVKALEDYKAKRSDELSFCRGALIHNVSKEPGGWWKGDYGTRIQQYFPSNYVEDI yielded an abundance fitness of -0.117 ± 0.093. RTVKALSDYKAKRSDELSFCRGALIHNVSKEPGGWWKGDYGTRIQQYFPSNYVEDI gave an abundance fitness of -0.109 ± 0.078. In the case of RTVKALTDYKAKRSDELSFCRGALIHNVSKEPGGWWKGDYGTRIQQYFPSNYVEDI, the abundance fitness is reported as -0.267 ± 0.1. Work on RTVKALMDYKAKRSDELSFCRGALIHNVSKEPGGWWKGDYGTRIQQYFPSNYVEDI yielded an abundance fitness of -0.059 ± 0.079. For RTVKALHDYKAKRSDELSFCRGALIHNVSKEPGGWWKGDYGTRIQQYFPSNYVEDI, the abundance fitness was -0.015 ± 0.45. Variant RTVKALGDYKAKRSDELSFCRGALIHNVSKEPGGWWKGDYGTRIQQYFPSNYVEDI has an abundance fitness of -0.35 ± 0.051. Work on RTVKALKDYKAKRSDELSFCRGALIHNVSKEPGGWWKGDYGTRIQQYFPSNYVEDI yielded an abundance fitness of 0.158 ± 0.078. RTVKALLDYKAKRSDELSFCRGALIHNVSKEPGGWWKGDYGTRIQQYFPSNYVEDI gave an abundance fitness of -0.077 ± 0.074. RTVKALQDYKAKRSDELSFCRGALIHNVSKEPGGWWKGDYGTRIQQYFPSNYVEDI showed an abundance fitness of 0.2 ± 0.093. Work on RTVKALADYKAKRSDELSFCRGALIHNVSKEPGGWWKGDYGTRIQQYFPSNYVEDI yielded an abundance fitness of 0.01 ± 0.066. RTVKALFDYKAKRSDELSFCRGALIHNVSKEPGGWWKGDYGTRIQQYFPSNYVEDI showed an abundance fitness of 0.126 ± 0.1. Work on RTVKALIDYKAKRSDELSFCRGALIHNVSKEPGGWWKGDYGTRIQQYFPSNYVEDI yielded an abundance fitness of -0.165 ± 0.41. RTVKALDDYKAKRSDELSFCRGALIHNVSKEPGGWWKGDYGTRIQQYFPSNYVEDI gave an abundance fitness of -0.282 ± 0.31. With RTVKALCDYKAKRSDELSFCRGALIHNVSKEPGGWWKGDYGTRIQQYFPSNYVEDI the abundance fitness was -0.118 ± 0.14. RTVKALYDYKADRSDELSFCRGALIHNVSKEPGGWWKGDYGTRIQQYFPSNYVEDI showed an abundance fitness of -0.239 ± 0.1.
